First the molecules themselves.
B1: Far upstream element-binding protein 2, residues 142 to 214; numbered along this chain, Q92945 (parent)
chain: RTSMTEEYRVPDGMVGLIIGRGGEQINKIQQDSGCKVQISPDSGGLPERSVSLTGAPESVQKAKMMLDDIVSR

± gives the uncertainty stated by the source.

In the series the parent is B1. Briefly: abundance fitness (aPCA) (normalised: wild type 0, dead -1); higher = more abundant; growth selection in yeast, the domain comes from the species named. The settings on record: Homo sapiens.
For RTSMTEEYRVPDGMVGLIIGRGGEQINKIQQDSGCKVQISPDSGGLPERSTSLTGAPESVQKAKMMLDDIVSR, the abundance fitness was -0.704 ± 0.068.

Regarding RTSMTEEYRVPDGMVGLIIGRGGEQINKIQQDSGCKVQISPDSGGLPERSCSLTGAPESVQKAKMMLDDIVSR, the abundance fitness was -0.189 ± 0.075.

On to RTSMTEEYRVPDGMVGLIIGRGGEQINKIQQDSGCKVQISPDSGGLPERSHSLTGAPESVQKAKMMLDDIVSR, for which the abundance fitness was -1.3 ± 0.23. In the case of RTSMTEEYRVPDGMVGLIIGRGGEQINKIQQDSGCKVQISPDSGGLPERSMSLTGAPESVQKAKMMLDDIVSR it was -0.122 ± 0.065. In the case of RTSMTEEYRVPDGMVGLIIGRGGEQINKIQQDSGCKVQISPDSGGLPERSDSLTGAPESVQKAKMMLDDIVSR it was -0.834 ± 0.083; in that of RTSMTEEYRVPDGMVGLIIGRGGEQINKIQQDSGCKVQISPDSGGLPERSISLTGAPESVQKAKMMLDDIVSR, 0.117 ± 0.085. As to RTSMTEEYRVPDGMVGLIIGRGGEQINKIQQDSGCKVQISPDSGGLPERSGSLTGAPESVQKAKMMLDDIVSR, the abundance fitness was -0.832 ± 0.048. As for RTSMTEEYRVPDGMVGLIIGRGGEQINKIQQDSGCKVQISPDSGGLPERSRSLTGAPESVQKAKMMLDDIVSR, the figure is -0.944 ± 0.054; as for RTSMTEEYRVPDGMVGLIIGRGGEQINKIQQDSGCKVQISPDSGGLPERSWSLTGAPESVQKAKMMLDDIVSR, -0.487 ± 0.055. Consider RTSMTEEYRVPDGMVGLIIGRGGEQINKIQQDSGCKVQISPDSGGLPERSLSLTGAPESVQKAKMMLDDIVSR, for which the abundance fitness is 0.019 ± 0.052. As for RTSMTEEYRVPDGMVGLIIGRGGEQINKIQQDSGCKVQISPDSGGLPERSPSLTGAPESVQKAKMMLDDIVSR, the figure is -0.847 ± 0.08.

Regarding RTSMTEEYRVPDGMVGLIIGRGGEQINKIQQDSGCKVQISPDSGGLPERSSSLTGAPESVQKAKMMLDDIVSR, the abundance fitness was -0.837 ± 0.067. As to RTSMTEEYRVPDGMVGLIIGRGGEQINKIQQDSGCKVQISPDSGGLPERSESLTGAPESVQKAKMMLDDIVSR, the abundance fitness was -0.84 ± 0.076. As for RTSMTEEYRVPDGMVGLIIGRGGEQINKIQQDSGCKVQISPDSGGLPERSYSLTGAPESVQKAKMMLDDIVSR, the figure is -0.5 ± 0.1; as for RTSMTEEYRVPDGMVGLIIGRGGEQINKIQQDSGCKVQISPDSGGLPERSFSLTGAPESVQKAKMMLDDIVSR, -0.089 ± 0.088; as for RTSMTEEYRVPDGMVGLIIGRGGEQINKIQQDSGCKVQISPDSGGLPERSQSLTGAPESVQKAKMMLDDIVSR, -0.947 ± 0.11. As for RTSMTEEYRVPDGMVGLIIGRGGEQINKIQQDSGCKVQISPDSGGLPERSASLTGAPESVQKAKMMLDDIVSR, the figure is -0.503 ± 0.045; as for RTSMTEEYRVPDGMVGLIIGRGGEQINKIQQDSGCKVQISPDSGGLPDRSVSLTGAPESVQKAKMMLDDIVSR, -0.033 ± 0.069; as for RTSMTEEYRVPDGMVGLIIGRGGEQINKIQQDSGCKVQISPDSGGLPFRSVSLTGAPESVQKAKMMLDDIVSR, -0.109 ± 0.075. Consider RTSMTEEYRVPDGMVGLIIGRGGEQINKIQQDSGCKVQISPDSGGLPVRSVSLTGAPESVQKAKMMLDDIVSR, for which the abundance fitness is -0.103 ± 0.047.

With RTSMTEEYRVPDGMVGLIIGRGGEQINKIQQDSGCKVQISPDSGGLPSRSVSLTGAPESVQKAKMMLDDIVSR, the abundance fitness was -0.024 ± 0.045. As for RTSMTEEYRVPDGMVGLIIGRGGEQINKIQQDSGCKVQISPDSGGLPLRSVSLTGAPESVQKAKMMLDDIVSR, the figure is -0.12 ± 0.041; as for RTSMTEEYRVPDGMVGLIIGRGGEQINKIQQDSGCKVQISPDSGGLPYRSVSLTGAPESVQKAKMMLDDIVSR, 0.103 ± 0.079.

In the case of RTSMTEEYRVPDGMVGLIIGRGGEQINKIQQDSGCKVQISPDSGGLPPRSVSLTGAPESVQKAKMMLDDIVSR, the abundance fitness is -0.065 ± 0.056. As for RTSMTEEYRVPDGMVGLIIGRGGEQINKIQQDSGCKVQISPDSGGLPCRSVSLTGAPESVQKAKMMLDDIVSR, the figure is -0.169 ± 0.069; as for RTSMTEEYRVPDGMVGLIIGRGGEQINKIQQDSGCKVQISPDSGGLPHRSVSLTGAPESVQKAKMMLDDIVSR, -0.007 ± 0.076.

Consider RTSMTEEYRVPDGMVGLIIGRGGEQINKIQQDSGCKVQISPDSGGLPMRSVSLTGAPESVQKAKMMLDDIVSR, for which the abundance fitness was -0.047 ± 0.057. In the case of RTSMTEEYRVPDGMVGLIIGRGGEQINKIQQDSGCKVQISPDSGGLPTRSVSLTGAPESVQKAKMMLDDIVSR it was 0.006 ± 0.048; in that of RTSMTEEYRVPDGMVGLIIGRGGEQINKIQQDSGCKVQISPDSGGLPQRSVSLTGAPESVQKAKMMLDDIVSR, -0.038 ± 0.059; in that of RTSMTEEYRVPDGMVGLIIGRGGEQINKIQQDSGCKVQISPDSGGLPNRSVSLTGAPESVQKAKMMLDDIVSR, -0.161 ± 0.12. In the case of RTSMTEEYRVPDGMVGLIIGRGGEQINKIQQDSGCKVQISPDSGGLPKRSVSLTGAPESVQKAKMMLDDIVSR, the abundance fitness was -0.158 ± 0.071.

RTSMTEEYRVPDGMVGLIIGRGGEQINKIQQDSGCKVQISPDSGGLPGRSVSLTGAPESVQKAKMMLDDIVSR: the abundance fitness was -0.044 ± 0.039.

In the case of RTSMTEEYRVPDGMVGLIIGRGGEQINKIQQDSGCKVQISPDSGGLPRRSVSLTGAPESVQKAKMMLDDIVSR, the abundance fitness was -0.12 ± 0.039. Take RTSMTEEYRVPDGMVGLIIGRGGEQINKIQQDSGCKVQISPDSGGLPIRSVSLTGAPESVQKAKMMLDDIVSR: the abundance fitness is -0.157 ± 0.085. As for RTSMTEEYRVPDGMVGLIIGRGGEQINKIQQDSGCKVQISPDSGGLPEYSVSLTGAPESVQKAKMMLDDIVSR, the figure is -0.379 ± 0.13.

Consider RTSMTEEYRVPDGMVGLIIGRGGEQINKIQQDSGCKVQISPDSGGLPEVSVSLTGAPESVQKAKMMLDDIVSR, for which the abundance fitness was -0.139 ± 0.047. Take RTSMTEEYRVPDGMVGLIIGRGGEQINKIQQDSGCKVQISPDSGGLPESSVSLTGAPESVQKAKMMLDDIVSR: the abundance fitness was -0.026 ± 0.052.
